# Measurements taken from patent US20180154038A1.
# Where no end group is shown, it is not given here.
# B1: Peptide Dendrimer No. 12 (peptide, from a related filing, part only)
# peptide: GPRPG
# chain: KKKKK
# modifications: not fully specified; also: five-arm peptide dendrimer, arms attached by C-terminus to branched core
# Target: human fibrinogen (human) (UniProt P02671)
# Assay: cell-based or functional assay
# Chain of human fibrinogen (human) (P02671 20-629 limits assumed, chain 1 of 3): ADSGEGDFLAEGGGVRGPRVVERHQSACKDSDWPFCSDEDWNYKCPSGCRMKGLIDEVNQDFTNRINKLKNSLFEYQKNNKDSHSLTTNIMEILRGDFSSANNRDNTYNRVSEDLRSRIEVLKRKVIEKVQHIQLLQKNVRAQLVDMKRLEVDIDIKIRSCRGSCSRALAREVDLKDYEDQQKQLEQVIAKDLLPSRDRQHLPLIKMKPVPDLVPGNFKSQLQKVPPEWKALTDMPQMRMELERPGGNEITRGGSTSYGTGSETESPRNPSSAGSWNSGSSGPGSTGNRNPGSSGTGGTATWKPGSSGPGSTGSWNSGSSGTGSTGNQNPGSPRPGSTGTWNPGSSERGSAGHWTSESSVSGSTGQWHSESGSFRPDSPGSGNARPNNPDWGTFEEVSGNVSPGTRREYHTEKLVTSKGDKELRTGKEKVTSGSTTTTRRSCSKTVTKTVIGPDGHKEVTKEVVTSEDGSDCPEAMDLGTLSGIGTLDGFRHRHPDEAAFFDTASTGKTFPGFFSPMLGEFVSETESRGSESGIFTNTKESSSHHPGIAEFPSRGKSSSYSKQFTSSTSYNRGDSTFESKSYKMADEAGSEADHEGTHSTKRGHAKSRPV
# Chain of human fibrinogen (human) (P02675 31-491 limits assumed, chain 2 of 3, further chain): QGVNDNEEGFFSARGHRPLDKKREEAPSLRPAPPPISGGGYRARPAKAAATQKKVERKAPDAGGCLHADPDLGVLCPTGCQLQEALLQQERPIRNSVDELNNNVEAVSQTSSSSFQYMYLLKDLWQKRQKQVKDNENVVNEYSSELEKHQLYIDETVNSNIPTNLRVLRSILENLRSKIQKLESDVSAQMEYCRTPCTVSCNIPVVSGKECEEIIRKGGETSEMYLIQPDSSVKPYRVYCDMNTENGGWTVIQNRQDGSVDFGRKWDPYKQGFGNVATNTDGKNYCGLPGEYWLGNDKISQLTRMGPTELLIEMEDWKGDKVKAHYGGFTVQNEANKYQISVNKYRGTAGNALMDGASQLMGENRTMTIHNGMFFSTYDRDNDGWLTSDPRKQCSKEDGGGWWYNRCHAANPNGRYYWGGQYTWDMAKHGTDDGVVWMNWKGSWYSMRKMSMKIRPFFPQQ
# Chain of human fibrinogen (human) (P02679 other isoform, or with tags, fused parts or gaps limits assumed, chain 3 of 3, further chain): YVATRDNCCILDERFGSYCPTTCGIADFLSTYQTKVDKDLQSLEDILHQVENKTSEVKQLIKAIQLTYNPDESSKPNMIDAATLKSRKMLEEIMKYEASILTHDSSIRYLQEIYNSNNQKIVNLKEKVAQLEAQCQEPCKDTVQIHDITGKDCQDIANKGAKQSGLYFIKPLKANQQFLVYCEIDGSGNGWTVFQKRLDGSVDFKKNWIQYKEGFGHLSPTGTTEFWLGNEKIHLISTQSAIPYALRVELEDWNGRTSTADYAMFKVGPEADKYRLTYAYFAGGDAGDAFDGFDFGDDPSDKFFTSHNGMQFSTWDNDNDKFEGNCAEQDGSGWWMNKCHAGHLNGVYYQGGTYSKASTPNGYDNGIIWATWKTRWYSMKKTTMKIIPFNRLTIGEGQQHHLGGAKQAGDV
binder,measurement,value
B1,"Clotting activity (seconds) in human fibrinogen @ c = 3 mg/ml; HXP12 extracted from HA paste, 0.06 mg/ml; after sterilization, accelerated aging @ 40 C, 2 weeks",3.6 s
same,"Clotting activity (seconds) in human fibrinogen @ c = 3 mg/ml; HXP12 extracted from HA paste, 0.06 mg/ml; after sterilization, accelerated aging @ 40 C, 4 weeks",5.4 s
same,"Clotting activity (seconds) in human fibrinogen @ c = 3 mg/ml; HXP12 extracted from HA paste, 0.06 mg/ml; autoclaved @ 121 C",3.3 s
same,"Clotting activity (seconds) in human fibrinogen @ c = 3 mg/ml; HXP12 extracted from HA paste, 0.06 mg/ml; non autoclaved",1 s
same,"Clotting activity (seconds) in human fibrinogen; HXP12 0.05 mg/ml in saline; after sterilization, storage @ 40 C, 4 wks",0.9 s
same,"Clotting activity (seconds) in human fibrinogen; HXP12 0.05 mg/ml in saline; after sterilization, storage @ 40 C, 7 wks",1.2 s
same,"Clotting activity (seconds) in human fibrinogen; HXP12 0.05 mg/ml in saline; after sterilization, storage @ 40 C, 13 wks",1.1 s
same,"Clotting activity (seconds) in human fibrinogen; HXP12 0.05 mg/ml in saline; after sterilization, storage @ 40 C, 27 wks",1.1 s
same,Clotting activity (seconds) in human fibrinogen; HXP12 0.05 mg/ml in saline; autoclaved @ 121 C,1 s
same,Clotting activity (seconds) in human fibrinogen; HXP12 0.05 mg/ml in saline; non autoclaved,1.1 s
same,"Clotting activity (seconds) in human plasma; HXP12 extracted from HA paste, 0.1 mg/ml; after sterilization, accelerated aging @ 80 C, 4 hours",2.8 s
same,"Clotting activity (seconds) in human plasma; HXP12 extracted from HA paste, 0.1 mg/ml; after sterilization, accelerated aging @ 80 C, 16 hours",4.8 s
same,"Clotting activity (seconds) in human plasma; HXP12 extracted from HA paste, 0.1 mg/ml; autoclaved @ 121 C",2.6 s
same,"Clotting activity (seconds) in human plasma; HXP12 extracted from HA paste, 0.1 mg/ml; non autoclaved",2 s
same,"clotting time in human plasma, dendrimer 0.25 mg/ml, 37 C",< 1 s
